Source: patent US8173771B2, “Humanin receptor or humanin-like polypeptide receptor” (Keio Univeristy, priority 2005, dated 2012)

Biological target: T1, G-CSFR/gp130 chimera proteins (Homo sapiens, UniProt P40189+Q99062)
T1 construct: the extracellular domain of the human G-CSF receptor fused to the full transmembrane domain; expressed in transfected cells; host or cells: F11 cells
T1 sequence (Q99062+P40189 with tags, fused parts or gaps): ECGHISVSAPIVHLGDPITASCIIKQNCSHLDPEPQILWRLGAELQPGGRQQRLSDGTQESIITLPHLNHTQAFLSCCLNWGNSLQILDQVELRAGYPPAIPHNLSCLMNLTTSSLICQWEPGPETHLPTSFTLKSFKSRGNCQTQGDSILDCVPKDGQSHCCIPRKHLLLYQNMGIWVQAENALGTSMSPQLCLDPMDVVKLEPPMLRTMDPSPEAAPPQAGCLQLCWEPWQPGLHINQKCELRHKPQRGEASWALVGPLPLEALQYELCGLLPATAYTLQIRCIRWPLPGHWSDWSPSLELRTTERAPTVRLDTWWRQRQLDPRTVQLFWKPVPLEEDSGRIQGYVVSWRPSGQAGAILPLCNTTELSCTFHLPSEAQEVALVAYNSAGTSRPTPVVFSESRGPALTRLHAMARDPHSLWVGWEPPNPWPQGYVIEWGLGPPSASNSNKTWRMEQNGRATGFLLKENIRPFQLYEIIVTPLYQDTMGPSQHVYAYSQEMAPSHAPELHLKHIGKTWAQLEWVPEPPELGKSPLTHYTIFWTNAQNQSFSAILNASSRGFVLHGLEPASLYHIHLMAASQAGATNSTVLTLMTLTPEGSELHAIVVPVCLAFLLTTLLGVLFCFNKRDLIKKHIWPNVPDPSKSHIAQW
Assay: G-CSF stimulation of G-CSFR/gp130 chimera proteins in F11 cells, cell mortality by Trypan blue exclusion
Format: cell-based
Details: 100 nM; G-25 expressed
Description: B) F11 cells were transfected with 0.5 μg of the pcDNA3 vector or pcDNA3-APP in association with 0.5 μg of the pEFBos vector or the pEFBos vectors encoding the extracellular domain of the human G-CSF receptor fused to the full transmembrane domain and a C-terminally truncated intracytoplasmic domain of gp130 (named “G-CSFR/gp130”). G-CSFR/gp130 (277) contains the full intracytoplasmic domain of gp130 corresponding to amino acids 1-277, while G-CSFR/gp130 (25), (68), and (133) contain the intracytoplasmic domains corresponding to amino acids 1-25, 1-68, and 1-133, respectively. At 24 hr after transfection, the cells were added with indicated amounts of human G-CSF. Cell mortality was determined by Trypan blue exclusion assay at 72 hr after transfection. The results of immunoblot analysis of the expression of […] are shown in photos.
C) Instead of the pcDNA3-V6421-APP vector, pcDNA3-K595 N/M596L-APP (NL-APP), M146L-PS1 and N141-I-PS2 vectors were used to do the same experiments as in FIG. 2A. The results of immunoblot analysis of the expression of NL-APP, M146L-PS1 and N141-I-PS2 are shown in photos.
D) F11 cells were transfected with 0.5 μg of the pEFBos vector or pEF-G85R-SOD1 in association with 0.5 μg of the pEFBos vector or each pEFBos vector encoding G-CSFR/gp130 (277) or G-CSFR/gp130 (25). At 24 hr after transfection, the cells were added with indicated amounts of human G-CSF. Cell mortality was determined by Trypan blue exclusion assay at 72 hr after transfection. The results of the expression of G85R-SOD1, which were confirmed by the immunoblot analysis, are shown in photos.
Neurohybrid F11 cells and pcDNA3 vectors encoding V642I-APP, K595N/M596L-APP (NL-APP), M146L-PS1, and N141I-PS2 cDNA were prepared as already described (Hashimoto et al, 2000, 2001a, 2003). pCAG-human gp130 and pCAG-human gp130 ED (the extracellular domain of human gp130) were prepared as described (Kumanogoh et al., 1997). pcDNA3 vectors encoding the extracellular domain of the G-CSF receptor fused to the full-length transmembrane domain and various portions of the intracellular domains of human gp130, were prepared as described (Fukada et al, 1996). The intracellular domain of gp130 was C-terminally truncated. A chimera protein named G-277 contained a 277 amino acid-long full intracellular domain of gp130 (SEQ ID NO:35), while G-195, G-133, G-68, and G-25 contained the amino acids 1-195 (SEQ ID NO:36), 1-133 (SEQ ID NO:37), 1-68 (SEQ ID NO:38), and 1-25 (SEQ ID NO:39) intracellular portions, respectively. C-terminally myc-tagged human WSX-1 and myc-tagged mouse CREME9 cDNAs were amplified from human and mouse embryo cDNA (BioChain) by PCR using sets of sense primers and antisense primers: 5′-[…]-3′ (SEQ ID NO:3) and 5′-[…]-3′ (SEQ ID NO:4) for human WSX-1; 5′-[…]-3′ (SEQ ID NO:5); and 5′-[…]-3′ (SEQ ID NO:6) for mouse CREME9. Plasmids encoding C-terminally V5-tagged human CNTF-R (V %-CNTF-R) and rat IL-6R (pUCM18-rat IL-6R) were purchased from Invitrogen and American Culture Collection, respectively. A pEFBos vector comprising familial ALS (FALS) gene G85R-SOD1 was kindly provided by Dr. Shoji Tsuji. Cosmid of human wild […] was constructed by inserting a full-length gp130 into a SwaI site of pAxCAwt (TaKaRa).
The transfection procedures were as described (Hashimoto et al, 2000, 2001a, 2003). F11 cells, seeded at 7×10^4/well in 6-well dishes, were transfected with indicated vectors. Transfection efficiency in these protocols has been determined to be invariably around 70%. At 72 hrs after transfection, the Trypan blue exclusion assay and LDH assay were performed as a cell-death assay and the WST-8 assay was performed as cell-viability assays (Hashimoto et al, 2000, 2001a b, 2003). HN was added to the culture medium usually at 5 hrs after transfection, but in some cases at 24 hrs after transfection.

B1: G-CSF: human G-CSF, ligand stimulating G-CSFR/gp130 chimera proteins (protein, UniProt P09919 31-207, looked up)
Granulocyte …: TPLGPASSLPQSFLLKCLEQVRKIQGDGAALQEKLVSECATYKLCHPEELVLLGHSLGIPWAPLSSCPSQALQLAGCLSQLHSGLFLYQGLLQALEGISPELGPTLDTLQLDVADFATTIWQQMEELGMAPALQPTQGAMPAFASAFQRRAGGVLVASHLQSFLEVSYRVLRHLAQP
With B1 the “prevention of NL-APP-, M146L-PS1-, N141I-PS2-mediated neuronal cell death” value was “not”.
